# Laboratory results as given in paper PMC5594493, “Antiproliferative factor (APF) binds specifically to sites within the cytoskeleton-associated protein 4 (CKAP4) extracellular domain” (BMC Biochemistry, 2017).
# T1: CKAP4_(127–360) (UniProt Q07065 127-360)
# T1 chain: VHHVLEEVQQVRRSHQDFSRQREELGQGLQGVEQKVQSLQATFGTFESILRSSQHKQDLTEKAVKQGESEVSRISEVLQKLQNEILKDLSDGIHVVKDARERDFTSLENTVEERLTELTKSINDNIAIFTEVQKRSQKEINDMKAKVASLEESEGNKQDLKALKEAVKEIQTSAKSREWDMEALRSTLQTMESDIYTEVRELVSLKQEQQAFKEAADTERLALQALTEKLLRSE
# T2: CKAP4_525–602 (Homo sapiens, UniProt Q07065)
# T2 construct: amino acids 106–602, 127–360, 361–524, and 525–602 regions were generated by PCR and subcloned into the pET-15b bacterial expression vector; His-tag; made in house; host or cells: E. coli BL21(DE3)pLysS
# T2 sequence (Q07065 525-602): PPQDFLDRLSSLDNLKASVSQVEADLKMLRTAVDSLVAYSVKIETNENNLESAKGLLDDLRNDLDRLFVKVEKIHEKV
# T3: CKAP4_127–360 (Homo sapiens, UniProt Q07065)
# T3 construct: amino acids 106–602, 127–360, 361–524, and 525–602 regions were generated by PCR and subcloned into the pET-15b bacterial expression vector; His-tag; made in house; host or cells: E. coli BL21(DE3)pLysS
# T3 sequence (Q07065 127-360): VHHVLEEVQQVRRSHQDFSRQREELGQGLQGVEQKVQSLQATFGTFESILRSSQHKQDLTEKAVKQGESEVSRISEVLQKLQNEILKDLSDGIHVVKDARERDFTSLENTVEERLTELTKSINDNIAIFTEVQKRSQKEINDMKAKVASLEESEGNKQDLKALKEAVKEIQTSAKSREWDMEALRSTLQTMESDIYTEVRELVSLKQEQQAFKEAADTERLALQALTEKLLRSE
# T4: CKAP4_361–524 (Homo sapiens, UniProt Q07065)
# T4 construct: amino acids 106–602, 127–360, 361–524, and 525–602 regions were generated by PCR and subcloned into the pET-15b bacterial expression vector; His-tag; made in house; host or cells: E. coli BL21(DE3)pLysS
# T4 sequence (Q07065 361-524): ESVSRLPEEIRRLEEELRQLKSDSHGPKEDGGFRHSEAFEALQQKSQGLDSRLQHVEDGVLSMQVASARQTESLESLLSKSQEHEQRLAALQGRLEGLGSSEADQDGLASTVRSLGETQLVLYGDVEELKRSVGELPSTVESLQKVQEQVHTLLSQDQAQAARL
# Legend:
# [1] = biological target: T1, CKAP4_(127–360); assay: SPR; CKAP4 deletion mutant amine-coupled on Fc2 of a CM5 chip (352, 585, 1914 RU), Fc1 blank reference; multi-cycle kinetics with as-APF 2.5–40 μM, 30 μl/min, 2 min association, 3 min dissociation; 25 °C, PBS with 0.01% Tween-20; heterogeneous ligand, 1:1 or two-state fit
# [2] = biological target: CKAP4_(361–524) (UniProt Q07065); assay: as above
# [3] = biological target: CKAP4_(525–602) (UniProt Q07065); assay: as above
# [4] = biological target: T2, CKAP4_525–602; assay: SPR binding kinetics, CKAP4_525–602 immobilized on CM5; conditions: CM5 amine-coupling
# Protocol: (§1) All SPR experiments were performed on a Biacore X-100 instrument (GE Healthcare) with the chip surface at 25 °C using PBS containing 0.01% Tween-20 as running buffer. CKAP4 recombinant proteins were immobilized individually either by Ni^2+/nitrilotriacetic acid (NTA) chelation on Sensor Chip NTA or by amine-coupling on Sensor Chip CM5, on the Fc2 channel. For amine-coupling, the sensor surface on both flow cells was activated for 7 min with a 1:1 mixture of 0.1 M EDC (1-ethyl-3-(3-dimethylaminopropyl) carbodiimide hydrochloride) and 0.1 M NHS (N-hydroxysuccinimide) at a flow rate of 5 μl/min. Immobilization of CKAP4 proteins (on Fc2) was performed in 10 mM sodium acetate buffer, at either pH 4.5, 5.0, or 5.5 based on preliminary pH scouting runs, for optimal binding. […] The data were analyzed using Biacore Evaluation software V2.0. […]
# (§2) To assess the as-APF binding activity of the purified CKAP4 deletion mutants, each protein was separately immobilized on a CM5 sensor chip through amine coupling, and SPR responses against APF control peptide and various as-APF concentrations were observed. We used this reverse approach to assess as-APF binding kinetics because the concentration of as-APF synthetic peptide could be calculated more accurately than the purified CKAP4 deletion mutants, which vary in amino acid composition. […]
# [5] = biological target: T3, CKAP4_127–360; assay: SPR binding kinetics, CKAP4_127–360 immobilized on CM5; conditions: CM5 amine-coupling
# Protocol: as §1, §2
# [6] = tested on: CKAP4; assay: SPR binding to CKAP4 recombinant proteins (overall statements); conditions: comparison of as-APF, APF and control peptide
# Protocol: as §1, with “binding. Unreacted NHS groups were quenched with a 7 min injection of 1 M ethanolamine pH 8.5. The Fc1 channel was treated similarly but without CKAP4 and served as a reference. Upon stabilization of the baseline signal, multi-cycle kinetics assays were performed with injections of as-APF as analyte at various concentrations (2.5–40 μM) in running buffer at 30 μl/min for 2 min, immediately followed by a 3 min dissociation phase.” for “binding.”
# [7] = biological target: T4, CKAP4_361–524; assay: SPR binding kinetics, CKAP4_361–524 immobilized on CM5; conditions: CM5 amine-coupling
# Protocol: as §1, §2
# [8] = biological target: T1, CKAP4_(127–360); assay: SPR; heterogeneous ligand fit, KD1
molecule,measurement,setting,value
"as-APF (asialo APF, Galβ1−3GalNAcα-O-…) (peptide)",KD1 (heterogeneous ligand fit),[1],4.61 µM
same,KD2 (heterogeneous ligand fit),[1],0.66 nM
same,stoichiometry N,[1],7.1
same,Kd,[2],2.3 µM
same,stoichiometry N,[2],1
same,Kd,[3],197 µM
same,stoichiometry N,[3],1.5
TVPAAVVVA [APF control peptide],specific binding,[4],no specific binding was detected
same,specific binding,[5],no specific binding was detected
same,binding to CKAP4 (in words),[6],no binding response
same,specific binding,[7],no specific binding was detected
"TVPAAVVVA (Galβ1−3GalNAcα-O- disaccharide on the N-terminal threonine) [as-APF (asialo APF, Galβ1−3GalNAcα-O-TVPAAVVVA)]",Kd,[8],4.6 µM
